Source: paper PMC6050581 (ACS infectious diseases, 2018)

B1: leukotoxin (LtxA) of Aggregatibacter actinomycetemcomitans (natural protein)
chain: MATTTLPNTKQQAAQFANSVADRAKENIDAAKEQLQKALDKLGKTGKKLTLYIPKNYKKGNGLTALIKAAQKLGIEVYHEGKDGPALTNGILNTGKKLLGLTERGLTLFAPELDKWIQGNKHLSNSVGSTGNLTKAIDKVQSVLGTLQAFLNTAFSGMDLDALIKARQNGKNVTDVQLAKASLNLINELIGTISSITNNVDTFSKQLNKLGEALGQVKHFGSFGDKLKNLPKLGNLGKGLGALSGVLSAISAALLLANKDADTATKAAAAAELTNKVLGNIGKAITQYLIAQRAAAGLSTTGPVAGLIASVVSLAISPLSFLGIAKQFDRARMLEEYSKRFKKFGYNGDSLLGQFYKNTGIADAAITTINTVLSAIAAGVGAASAGSLVGAPIGLLVSAITSLISGILDASKQAVFEHIANQLADKIKAWENKYGKNYFENGYDARHSAFLEDSLKLFNELREKYKTENILSITQQGWDQRIGELAGITRNGDRIQSGKAYVDYLKKGEELAKHSDKFTKQILDPIKGNIDLSGIKGSTTLTFLNPLLTAGKEERKTRQSGKYEFITELKVKGRTDWKVKGVPNSNGVYDFSNLIQHAVTRDNKVLEARLIANLGAKDDYVFVGSGSTIVNAGDGYDVVDYSKGRTGALTIDGRNATKAGQYKVERDLSGTQVLQETVSKQETKRGKVTDLLEYRNYKLDYYYTNKGFKAHDELNSVEEIIGSTLRDKFYGSKFNDVFHGHDGDDLIYGYDGDDRLYGDNGNDEIHGGQGNDKLYGGAGNDRLFGEYGNNYLDGGEGDDHLEGGNGSDILRGGSGNDKLFGNQGDDLLDGGEGDDQLAGGEGNDIYVYRKEYGHHTITEHSGDKDKLSLANINLKDVSFERNGNDLLLKTNNRTAVTFKGWFSKPNSSAGLDEYQRKLLEYAPEKDRARLKRQFELQRGKVDKSLNNKVEEIIGKDGERITSQDIDNLFDKSGNKKTISPQELAGLIKNKGKSSSLMSSSRSSSMLTQKSGLSNDISRIISATSGFGSSGKALSASPLQTNNNFNSYANSLATTA
B2: W2S4 peptide (human CD11a-based) (peptide)
peptide: Ac-YLSGLCYLFRQNLQGPML-NH2
B3: W2S3 peptide (human CD11a-based; identical in murine CD11a) (peptide)
peptide: Ac-LSRTCDQNT-NH2
B4: W2S1 peptide (human CD11a-based) (peptide)
peptide: Ac-VTLRGSNYTSKYLGMTLATDP-NH2
B5: W2S2 peptide (human CD11a-based) (peptide)
peptide: Ac-TDGSILACDPG-NH2
B6: W1S4 peptide (human CD11a-based) (peptide)
peptide: Ac-TGHCLP-NH2

Molecular target: B2
Assay: SPR

| Binder | KD relative to the KD of LtxA for the other peptides |
| --- | --- |
| B1 | ~2 fold |

molecular target: B1; assay: SPR

| Binder | Kd |
| --- | --- |
| B2 | ~10 nM |
| B3 | ~10 nM |
| B4 | ~10 nM |
| B5 | ~10 nM |
| B6 | ~10 nM |
